Data set [1] addresses T1, ArgR (Escherichia coli K-12 W3110) (UniProt P0A6D0).
T1 sequence: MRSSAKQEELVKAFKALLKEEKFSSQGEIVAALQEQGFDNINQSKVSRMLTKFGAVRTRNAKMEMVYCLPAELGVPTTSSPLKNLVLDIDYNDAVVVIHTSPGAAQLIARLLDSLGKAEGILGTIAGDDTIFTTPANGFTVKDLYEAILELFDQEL
The data set can be described thus: EMSA. The note with it: Crp EMSA: 10 mM Tris-HCl pH 8.0, 50 mM KCl, 1 mM EDTA, 0.1 mM DTT, 50 ug/ml BSA, 10 ug/ml poly(dI-dC), 12.5% glycerol, cAMP (20 uM in Results, 20 mM in Methods …). In general terms: In EMSA bound probe runs differently from free probe, usually more slowly.

The test system of data set [2] is Crp (Escherichia coli K-12 W3110). The data set can be described thus: EMSA. The note with it: 20 uM cAMP; apparent Kd; Crp EMSA: 10 mM Tris-HCl pH 8.0, 50 mM KCl, 1 mM EDTA, 0.1 mM DTT, 50 ug/ml BSA, 10 ug/ml poly(dI-dC), 12.5% glycerol, cAMP (20 uM in Results, 20 mM in Methods …).

We go through two substances from article PMC1784095.

In data set [1], “AATTCGGCGATGACCTGGATCAATCGTCCCGGCCTGCTTTTATCAACTGCATAATCAATCAAAATTACCGAAATTTCATGCATAATCACATAAATCACTTTTGCTTATCTTGTGTCAGATTTTTTTATCTCCTGATGGATTTTAGGCAAAAACAGTAGCATGAAACGTCATTACCAATTAAGGCAGTATAAAATGCTGGTTTTGTCGTCAGTTCAAGGCAGGATAAGGGTTAACACACCTTTATGACAGTCAGGAATTGACTGTTTCTCTAACGACTTC (double strand) [PgltB -406 to -128]” came in with a Kd of 1.7 nM.

As to PgltB -406 to +246, the Kd in data set [1] (5 mM L-arginine, apparent Kd, Hill 2.0) turned out to be 1.8 nM; in data set [2] it was 35 nM.
